Laboratory results as given in patent US20040043420A1, “Method of identifying conformation-sensitive binding peptides and uses thereof” (priority 2003, published 2004).

Legend:
ER β [1] = molecular target: ER β (Homo sapiens, UniProt Q92731); assay: Phage ELISA fingerprint: binding of peptide phage to immobilized ER β in the presence of modulators (Table 14B)
ER α [2] = molecular target: T1, ER α (UniProt P03372 1-595, limits assumed); assay: phage isolated on ERα-ERE; Raloxifen
T1 construct: also called estrogen receptor α; ERα-ERE
T1 sequence (looked up): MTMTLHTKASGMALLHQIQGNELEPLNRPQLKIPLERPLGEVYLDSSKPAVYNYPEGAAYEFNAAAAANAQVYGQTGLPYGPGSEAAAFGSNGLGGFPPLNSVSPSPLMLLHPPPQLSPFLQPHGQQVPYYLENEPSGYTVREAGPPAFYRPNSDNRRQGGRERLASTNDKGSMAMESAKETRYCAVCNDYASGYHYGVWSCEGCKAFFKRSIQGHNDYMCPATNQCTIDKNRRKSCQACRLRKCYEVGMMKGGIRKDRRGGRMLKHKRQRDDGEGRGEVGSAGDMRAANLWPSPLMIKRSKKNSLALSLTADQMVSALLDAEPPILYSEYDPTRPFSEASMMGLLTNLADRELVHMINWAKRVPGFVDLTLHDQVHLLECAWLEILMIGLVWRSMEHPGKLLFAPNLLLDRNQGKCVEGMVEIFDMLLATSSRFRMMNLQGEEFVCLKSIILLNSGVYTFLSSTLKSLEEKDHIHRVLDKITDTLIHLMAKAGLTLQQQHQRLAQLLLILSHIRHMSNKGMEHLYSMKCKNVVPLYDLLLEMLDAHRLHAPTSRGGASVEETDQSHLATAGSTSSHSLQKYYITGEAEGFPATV

ER α [3] = molecular target: T1, ER α; assay: phage isolated on ERα-ERE; Tamoxifen
ER β [4] = molecular target: T2, ER β (UniProt Q92731 1-530, limits assumed); assay: phage ELISA, ICI 182,780 1 µM
T2 construct: In vitro; also called estrogen receptor β; ERβ-ERE

[5] = molecular target: T3, Gal4 transcriptional activation domain (AD) fused in frame with AR (yeast, UniProt P10275 1-920, limits assumed); assay: cell-based or functional assay
T3 sequence (looked up): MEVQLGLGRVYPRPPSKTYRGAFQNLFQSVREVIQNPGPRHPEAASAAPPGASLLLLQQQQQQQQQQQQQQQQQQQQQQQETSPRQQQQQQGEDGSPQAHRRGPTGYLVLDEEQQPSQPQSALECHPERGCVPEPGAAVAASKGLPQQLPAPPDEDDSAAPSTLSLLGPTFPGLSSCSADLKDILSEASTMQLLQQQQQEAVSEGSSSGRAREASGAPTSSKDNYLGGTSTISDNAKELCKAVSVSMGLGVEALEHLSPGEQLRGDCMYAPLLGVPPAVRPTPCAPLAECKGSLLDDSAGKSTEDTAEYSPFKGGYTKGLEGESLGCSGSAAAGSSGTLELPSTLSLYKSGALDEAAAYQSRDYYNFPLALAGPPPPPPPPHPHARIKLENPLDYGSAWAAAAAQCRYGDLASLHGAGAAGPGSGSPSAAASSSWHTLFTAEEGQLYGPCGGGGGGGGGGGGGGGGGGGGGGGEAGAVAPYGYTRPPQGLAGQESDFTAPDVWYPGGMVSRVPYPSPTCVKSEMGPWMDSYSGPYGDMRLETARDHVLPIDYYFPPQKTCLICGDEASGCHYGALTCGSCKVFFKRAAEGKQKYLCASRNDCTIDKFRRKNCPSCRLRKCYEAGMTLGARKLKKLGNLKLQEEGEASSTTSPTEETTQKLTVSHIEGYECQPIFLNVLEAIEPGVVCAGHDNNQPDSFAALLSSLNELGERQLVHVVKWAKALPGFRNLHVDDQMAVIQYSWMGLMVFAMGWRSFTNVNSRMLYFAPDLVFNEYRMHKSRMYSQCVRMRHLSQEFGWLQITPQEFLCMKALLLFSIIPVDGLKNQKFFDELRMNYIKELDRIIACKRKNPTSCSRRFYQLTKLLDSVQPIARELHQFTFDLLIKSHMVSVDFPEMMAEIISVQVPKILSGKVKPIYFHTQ

[6] = molecular target: T3, Gal4 transcriptional activation domain …; assay: cell-based or functional assay; remark: listed apart in the source
ER α, P03372 [7] = molecular target: T4, ER α, P03372; assay: peptide probe binding to ERα, 4-OH Tamoxifen
T4 chain: T1 sequence (looked up)

ER α, P03372 [8] = molecular target: T4, ER α, P03372; assay: peptide probe binding to ERα, Diethylstilbesterol
ER α, P03372 [9] = molecular target: T4, ER α, P03372; assay: peptide probe binding to ERα, Estriol
ER α, P03372 [10] = molecular target: T4, ER α, P03372; assay: peptide probe binding to ERα, ICI 182,780
ER α, P03372 [11] = molecular target: T4, ER α, P03372; assay: peptide probe binding to ERα, Raloxifene
ER α, P03372 [12] = molecular target: T4, ER α, P03372; assay: peptide probe binding to ERα, GW7604
ER α, P03372 [13] = molecular target: T4, ER α, P03372; assay: peptide probe binding to ERα, Clomiphene
ER α, P03372 [14] = molecular target: T4, ER α, P03372; assay: peptide probe binding to ERα, Nafoxidine
ER α, P03372 [15] = molecular target: T4, ER α, P03372; assay: peptide probe binding to ERα, 17α-Estradiol
ER α, P03372 [16] = molecular target: T4, ER α, P03372; assay: peptide probe binding to ERα, Buffer
ER α, P03372 [17] = molecular target: T4, ER α, P03372; assay: peptide probe binding to ERα, 17β-Estradiol
ER β [18] = molecular target: T2, ER β; assay: peptide probe binding to ERβ, Estriol
ER β [19] = molecular target: T2, ER β; assay: peptide probe binding to ERβ, Clomiphene
ER β [20] = molecular target: T2, ER β; assay: peptide probe binding to ERβ, Raloxifene
ER α [21] = molecular target: T1, ER α; assay: peptide probe binding to ERα, ICI 182,780
ER α [22] = molecular target: T1, ER α; assay: peptide probe binding to ERα, 4-OH Tamoxifen
ER α [23] = molecular target: T1, ER α; assay: peptide probe binding to ERα, Diethylstilbesterol
ER β [24] = molecular target: T2, ER β; assay: peptide probe binding to ERβ, GW 7604
ER β [25] = molecular target: T2, ER β; assay: peptide probe binding to ERβ, 17β-Estradiol

Sequence of ER β (Homo sapiens, UniProt Q92731) (Q92731 whole entry, species assumed): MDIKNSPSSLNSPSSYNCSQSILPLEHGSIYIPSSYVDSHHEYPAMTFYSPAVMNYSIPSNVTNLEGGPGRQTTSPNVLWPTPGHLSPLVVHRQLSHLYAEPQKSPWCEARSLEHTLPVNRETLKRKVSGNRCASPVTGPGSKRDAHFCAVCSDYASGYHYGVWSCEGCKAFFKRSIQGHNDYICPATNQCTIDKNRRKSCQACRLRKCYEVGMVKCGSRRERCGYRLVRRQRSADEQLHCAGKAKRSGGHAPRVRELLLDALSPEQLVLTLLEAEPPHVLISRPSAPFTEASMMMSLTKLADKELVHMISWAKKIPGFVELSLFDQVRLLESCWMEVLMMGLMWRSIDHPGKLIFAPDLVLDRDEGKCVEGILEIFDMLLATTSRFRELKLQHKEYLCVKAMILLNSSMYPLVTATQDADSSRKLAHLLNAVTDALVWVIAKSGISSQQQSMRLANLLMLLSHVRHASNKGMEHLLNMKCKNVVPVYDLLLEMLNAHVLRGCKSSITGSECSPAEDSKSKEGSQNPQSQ
T2 sequence (Q92731 whole entry): as the sequence (Q92731 whole entry, species assumed) above

SSNHQSSRLIELLSR [#4 ER./E2]
Class Specific Fingerprint on ERβ: phage binding, 4-OH Tamoxifen present (ER β [1]; 4-OH tamoxifen 1 μM): 0 | Class Specific Fingerprint on ERβ: phage binding, ICI 182,780 present (ER β [1]; ICI 182,780 1 μM): 0 | Class Specific Fingerprint on ERβ: phage binding, Clomiphene present (ER β [1]; clomiphene 10 μM): 0 | Class Specific Fingerprint on ERβ: phage binding, Raloxifene present (ER β [1]; raloxifene 1 μM): 0

SRLPPSVFSMCGSEVCLSR [9Tβ]
Class Specific Fingerprint on ERβ: phage binding, Nafoxidine present (ER β [1]; nafoxidine 10 μM): 5

SRLCFGDWCMLGGVDVLSR [1R]
binding result (ER α [2]): binds

SRVFGVSGGEVVLINGSSR [T3-11]
binding result (ER α [3]): binds

SSLDLSQFPMTASFLRESR (also called β II; B2) [35E-β]
phage ELISA grade (ER β [4]): 0

B1: M7B1 (peptide)
chain: MKLLSSIEQACDICRLKKLKCSKEKPKCAKCLKNNWECRYSPKTKRSPLTRAHLTEVESRLERLEQLFLLIFPREDLDMILKMDSLQDIKALLTGLFVQDNVNKDAVTDRLASVETDMPLTLRQHRISATSSSEESSNKGQRQLTVSEFVGWFTGMAACSYAPDLDLQPS
β-galactosidase activity (yeast two-hybrid), CPA [5]: 1.69 | β-galactosidase activity (yeast two-hybrid), DHT [5]: 3.93 | β-galactosidase activity (yeast two-hybrid), MPA [5]: 6.9 | β-galactosidase activity (yeast two-hybrid), No Lig [5]: 0 | β-galactosidase activity (yeast two-hybrid), RU [5]: 0.1 | β-galactosidase activity (yeast two-hybrid), Test [5]: 4.5 | Fold induction (yeast two-hybrid) [6]: > 2 fold

SSLTSRDFGSWYASR (modifications not checked) [phage 5 (Table 2)]
Equiv. (ER α, P03372 [7]): 38% | Equiv. (ER α, P03372 [8]): 69% | Equiv. (ER α, P03372 [9]): 62% | Equiv. (ER α, P03372 [10]): 56% | Equiv. (ER α, P03372 [11]): 44% | Equiv. (ER α, P03372 [12]): 35% | Equiv. (ER α, P03372 [13]): 56% | Equiv. (ER α, P03372 [14]): 32% | Equiv. (ER α, P03372 [15]): 80% | Equiv. (ER α, P03372 [16]): 0% | Equiv. (ER α, P03372 [17]): 100%

SRTLQLDWGTLYSR [T3-1]
binding result (ER α [3]): binds

B2: M4D1 (peptide)
chain: MKLLSSIEQACDICRLKKLKCSKEKPKCAKCLKNNWECRYSPKTKRSPLTRAHLTEVESRLERLEQLFLLIFPREDLDMILKMDSLQDIKALLTGLFVQDNVNKDAVTDRLASVETDMPLTLRQHRISATSSSEESSNKGQRQLTVSEFRFPFHEMVREWESMGLERVRYAEP
β-galactosidase activity (yeast two-hybrid), CPA [5]: -0.0396 | β-galactosidase activity (yeast two-hybrid), DHT [5]: 0.395 | β-galactosidase activity (yeast two-hybrid), MPA [5]: 1.7 | β-galactosidase activity (yeast two-hybrid), No Lig [5]: 0 | β-galactosidase activity (yeast two-hybrid), RU [5]: 0.1 | β-galactosidase activity (yeast two-hybrid), Test [5]: 0.134 | Fold induction (yeast two-hybrid) [6]: > 2 fold

SSEACVGRWMLCEQLGVSR (also called β III; B3) [12B-β]
Equiv. (ER β [18]): 77% | Equiv. (ER β [19]): -61% | Equiv. (ER β [20]): -71%

SREWEDGFGGRWLSR (also called β I; B1) [4T-β]
phage ELISA grade (ER β [4]): 0 | Equiv. (ER β [19]): -62% | Equiv. (ER β [20]): -53%

SSLNMVVDTPWCGKWVCSR [2R]
binding result (ER α [2]): binds

SRFEIWKPEPGCVSSLENWEPGKRVCSR [T2-10]
binding result (ER α [3]): binds

SSWDMHQFFWEGVSR (also called AB3) [α/β III]
Equiv. (ER α [21]): -100% | Equiv. (ER α [22]): 100% | Equiv. (ER α [23]): -53% | Equiv. (ER β [18]): -57% | Equiv. (ER β [24]): -86% | Equiv. (ER β [25]): -71% | Equiv. (ER β [19]): 34% | Equiv. (ER β [20]): 77%
